Target: T1, Gα12 (human, UniProt Q03113 1-381)
T1 sequence: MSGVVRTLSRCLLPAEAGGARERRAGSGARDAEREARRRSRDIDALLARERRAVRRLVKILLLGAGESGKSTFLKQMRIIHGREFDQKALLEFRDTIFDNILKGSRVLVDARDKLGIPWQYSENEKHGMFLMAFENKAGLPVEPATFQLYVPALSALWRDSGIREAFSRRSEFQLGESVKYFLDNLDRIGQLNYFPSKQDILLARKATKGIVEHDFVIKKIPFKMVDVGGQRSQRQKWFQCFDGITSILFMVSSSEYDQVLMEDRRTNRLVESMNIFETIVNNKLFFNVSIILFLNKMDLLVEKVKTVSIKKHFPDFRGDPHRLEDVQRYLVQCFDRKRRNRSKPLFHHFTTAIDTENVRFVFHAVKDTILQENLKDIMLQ
Test: cell-based or functional assay

- SRE-luciferase reporter activity after carbachol stimulation (10 µM, 6 hours): 76
B1: M3-muscarinic acetylcholine receptor (M3R) (receptor)
chain: not shown
